Test results taken from paper PMC3731569 (Cell Research, 2013).

Molecular target: Human DPP4 extracellular domain (residues 39-766) (human, UniProt P27487 39-766)
Assay: […], ~10 mg/ml in HBS

Sequence of Human DPP4 extracellular domain (residues 39-766) (P27487 39-766): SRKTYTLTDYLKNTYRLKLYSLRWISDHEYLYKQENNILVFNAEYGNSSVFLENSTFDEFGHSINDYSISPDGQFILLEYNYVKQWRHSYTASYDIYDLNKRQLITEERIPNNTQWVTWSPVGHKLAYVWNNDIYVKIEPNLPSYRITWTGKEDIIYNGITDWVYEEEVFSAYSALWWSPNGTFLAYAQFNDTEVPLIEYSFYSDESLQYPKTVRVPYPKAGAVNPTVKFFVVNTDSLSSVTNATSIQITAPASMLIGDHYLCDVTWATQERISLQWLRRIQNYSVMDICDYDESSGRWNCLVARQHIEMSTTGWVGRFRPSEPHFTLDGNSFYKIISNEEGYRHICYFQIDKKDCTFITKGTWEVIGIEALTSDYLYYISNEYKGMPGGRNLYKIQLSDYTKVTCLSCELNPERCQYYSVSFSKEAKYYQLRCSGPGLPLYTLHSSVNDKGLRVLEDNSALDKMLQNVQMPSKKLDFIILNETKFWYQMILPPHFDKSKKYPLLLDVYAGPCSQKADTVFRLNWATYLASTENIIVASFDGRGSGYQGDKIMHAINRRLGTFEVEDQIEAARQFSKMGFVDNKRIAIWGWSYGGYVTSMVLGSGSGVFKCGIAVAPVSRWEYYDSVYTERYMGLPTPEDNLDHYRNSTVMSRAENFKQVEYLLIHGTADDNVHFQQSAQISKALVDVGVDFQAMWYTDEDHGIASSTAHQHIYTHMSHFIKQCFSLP

B1: MERS-CoV RBD (E367 to Y606) (domain or fragment)
chain: EAKPSGSVVEQAEGVECDFSPLLSGTPPQVYNFKRLVFTNCNYNLTKLLSLFSVNDFTCSQISPAAIASNCYSSLILDYFSYPLSMKSDLSVSSAGPISQFNYKQSFSNPTCLILATVPHNLTTITKPLKYSYINKCSRFLSDDRTEVPQLVNANQYSPCVSIVPSTVWEDGDYYRKQLSPLEGGGWLVASGSTVAMTEQLQMGFGITVQYGTDTNSVCPKLEFANDTKIASQLGNCVEY
**Q.** Does B1 bind?
**A.** binds
